Source: patent publication US20230183318A1 (published 2023)
Where a chain is given by its changes, count along the chain named. Names may count otherwise.

B1: aglycosylated PD-1 variant Q12 (JY_Q12), soluble His-tagged protein (receptor)
chain: LDSPDRPLDPPTISPALLVVTEGDQATFTCSFSQTSKSFVLNWYRISPSQQTDKLAAFPEDRSQPGQDTRFRVTQLPNGRDFHMSVVRARRQDSGTYLCVAISLAPKVQIKESLRAELRVTERRAEVPTAHPSPSPRPACQFQ
B2: Q18 (protein)
chain: LDSPDRPWNPPTISPALLVVTEGDQATFTCGLPQTSESFVLNWYRIGPSQQMDKLAAFPEDRSQPGQDTRFRVTQLPNGRDFHMSVVRARRQDSGTYLCVAISLAPKVQIKESLRAELRVTERRAEVRTAHPSPSPRSAGQFQ
B3: Q33 (protein)
chain: B1 chain with L8W, D9N, Q34R, K37E, R88G, R90Q, C140G
B4: Q10 (protein)
chain: B2 chain with G31S, P33S, G47S, V87D, T96S, R128P, S138P
B5: glycosylated PD-1 variant JY_Q12-2 (Q34N) (receptor)
chain: B1 chain with Q34N
modifications: sugar chain at N34 (N-linked glycosylation site restored, expressed in Expi293F)
B6: JY-Q12-4 (protein)
chain: B1 chain with Q92N
B7: glycosylated PD-1 variant JY_Q12-1 (Q25N) (receptor)
chain: B1 chain with Q25N
modifications: sugar chain at N25 (N-linked glycosylation site restored, expressed in Expi293F)
B8: glycosylated PD-1 variant JY_Q12-3 (Q50N) (receptor)
chain: B1 chain with Q50N
modifications: sugar chain at N50 (N-linked glycosylation site restored, expressed in Expi293F)

Molecular target: T1, PD-L1-streptavidin (UniProt Q9NZQ7 19-238)
Assay: BLI (BLItz)

T1 sequence (Q9NZQ7 19-238): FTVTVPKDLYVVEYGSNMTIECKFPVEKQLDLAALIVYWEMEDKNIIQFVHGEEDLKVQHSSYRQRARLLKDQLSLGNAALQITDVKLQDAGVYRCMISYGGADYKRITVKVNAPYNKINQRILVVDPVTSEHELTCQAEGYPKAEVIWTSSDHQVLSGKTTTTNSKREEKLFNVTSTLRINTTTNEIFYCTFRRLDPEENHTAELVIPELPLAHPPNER

**Q.** B1 was tested. Which Kd did it give?
**A.** 5.49 nM

**Q.** For B2, which Kd is on record?
**A.** 46.9 nM

**Q.** With B3 as the binder, how does the Kd read?
**A.** 35.1 nM

**Q.** With B4 as the binder, how does the Kd read?
**A.** 50.1 nM

Molecular target: T1, PD-L1-streptavidin
Assay: BLI (BLItz)
Remark: another data set of the same source

**Q.** For B5, which Kd is on record?
**A.** 0.899 nM

**Q.** How did the Kd turn out when B6 was run?
**A.** 17.3 nM

**Q.** How did the Kd turn out when B7 was run?
**A.** 7.38 nM

**Q.** For B8, which Kd is on record?
**A.** 3.24 nM

**Q.** B1 was tested. Which Kd did it give?
**A.** 11 nM

Molecular target: T1, PD-L1-streptavidin
Assay: BLI (BLItz); Fig. 12

**Q.** For B1, which Kd is on record?
**A.** 5.49 nM
